Reference: patent US20190106460A1, “BINDING INHIBITORS OF THE BETA. TRANSDUCIN REPEAT-CONTAINING PROTEIN” (priority 2011, published 2019)
Where two headings read alike, the source gives them in different places. Starred links: 1 amine or outer side, 2 acyl side, 3 side chain; linkers in the order of their positions; H or OH if unused. Suc = O=C(CCC(=O)[*:2])[*:1]

Columns and labels:
[1] = target: βTrCP (tag cleaved and complexed with Skp1), Q9Y297; assay: FP competition vs fluorescein-IκB peptide
[2] = target: HisβTrCP/Skp1 and HisβTrCP/GSTSkp1 (immobilised on NTA Biacore chip), Q9Y297; assay: SPR, Biacore T200, βTrCP/Skp1 immobilised
[3] = target: βTrCP (tag cleaved and complexed with Skp1), Q9Y297; assay: FP competition vs fluorescein-IκB peptide; remark: listed apart in the source
[4] = target: T1, Fbw7, Q969H0; assay: cell-based or functional assay
T1 chain: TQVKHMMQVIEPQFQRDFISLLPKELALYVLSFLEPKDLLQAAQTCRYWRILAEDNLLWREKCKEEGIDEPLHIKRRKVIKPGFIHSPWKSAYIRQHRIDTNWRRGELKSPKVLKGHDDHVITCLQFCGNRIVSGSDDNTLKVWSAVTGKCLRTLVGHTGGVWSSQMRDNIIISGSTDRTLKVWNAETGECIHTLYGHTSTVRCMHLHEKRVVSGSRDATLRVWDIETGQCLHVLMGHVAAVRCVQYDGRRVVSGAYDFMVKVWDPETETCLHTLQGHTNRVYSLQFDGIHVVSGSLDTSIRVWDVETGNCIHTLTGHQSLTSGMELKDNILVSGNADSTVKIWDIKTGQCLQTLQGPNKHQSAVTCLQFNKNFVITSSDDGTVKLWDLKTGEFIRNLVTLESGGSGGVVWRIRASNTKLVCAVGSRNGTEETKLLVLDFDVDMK

[5] = target: Skp2, Q13309; assay: cell-based or functional assay
Chain of Skp2, Q13309 (Q13309 whole entry): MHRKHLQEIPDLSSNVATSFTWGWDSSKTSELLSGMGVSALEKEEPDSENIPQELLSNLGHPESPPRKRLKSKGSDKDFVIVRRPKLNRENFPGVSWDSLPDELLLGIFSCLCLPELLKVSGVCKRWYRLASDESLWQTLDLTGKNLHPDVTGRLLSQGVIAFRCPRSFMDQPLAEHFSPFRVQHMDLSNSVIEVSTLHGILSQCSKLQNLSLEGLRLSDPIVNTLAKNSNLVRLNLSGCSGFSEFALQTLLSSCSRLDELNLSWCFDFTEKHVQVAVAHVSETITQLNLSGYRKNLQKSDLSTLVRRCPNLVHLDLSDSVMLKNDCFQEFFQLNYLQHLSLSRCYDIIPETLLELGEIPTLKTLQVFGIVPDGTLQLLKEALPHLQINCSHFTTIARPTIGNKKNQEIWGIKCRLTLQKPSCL

Chain of βTrCP (tag cleaved and complexed with Skp1), Q9Y297 (Q9Y297 175-605, chain 1 of 2): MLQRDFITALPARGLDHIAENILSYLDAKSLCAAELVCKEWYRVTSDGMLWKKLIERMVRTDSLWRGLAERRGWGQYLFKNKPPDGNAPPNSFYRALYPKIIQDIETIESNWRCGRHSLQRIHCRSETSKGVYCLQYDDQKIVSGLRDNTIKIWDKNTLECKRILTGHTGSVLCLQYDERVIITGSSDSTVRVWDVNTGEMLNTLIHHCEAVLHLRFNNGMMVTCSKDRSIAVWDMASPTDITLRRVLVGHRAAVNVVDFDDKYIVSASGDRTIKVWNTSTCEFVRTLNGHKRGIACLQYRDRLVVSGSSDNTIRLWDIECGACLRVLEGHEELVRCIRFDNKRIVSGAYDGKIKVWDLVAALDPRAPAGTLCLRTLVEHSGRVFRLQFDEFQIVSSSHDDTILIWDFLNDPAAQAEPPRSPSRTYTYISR
Chain of βTrCP (tag cleaved and complexed with Skp1), Q9Y297 (P63208 whole entry, chain 2 of 2, further chain): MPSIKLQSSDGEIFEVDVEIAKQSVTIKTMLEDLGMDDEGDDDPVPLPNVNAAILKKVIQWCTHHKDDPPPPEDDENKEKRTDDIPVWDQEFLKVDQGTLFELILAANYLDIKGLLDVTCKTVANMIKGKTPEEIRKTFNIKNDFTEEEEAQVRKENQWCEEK
Chain of HisβTrCP/Skp1 and HisβTrCP/GSTSkp1 (immobilised on NTA Biacore chip), Q9Y297 (Q9Y297 175-605, chain 1 of 2): as the sequence (Q9Y297 175-605, chain 1 of 2) above
Chain of HisβTrCP/Skp1 and HisβTrCP/GSTSkp1 (immobilised on NTA Biacore chip), Q9Y297 (P63208 whole entry, chain 2 of 2, further chain): as the sequence (P63208 whole entry, chain 2 of 2, further chain) above

B1: Suc-EGYFE-NH2 (peptide)
peptide: Suc-EGYFE-NH2
SMILES: NC(=O)[C@H](CCC(=O)O)NC(=O)[C@H](Cc1ccccc1)NC(=O)[C@H](Cc1ccc(O)cc1)NC(=O)CNC(=O)[C@H](CCC(=O)O)NC(=O)CCC(=O)O
IC50 [1]: 1000 nM | Kd [2]: 537 nM | IC50 [3]: 1040 nM | % Inhibition Fbw7 @ 10 µM [4]: 0% | % Inhibition Fbw7 @ (100 µM) [4]: 0% | % Inhibition Skp2 @ 10 µM [5]: 11% | % Inhibition Skp2 @ (100 µM) [5]: 28%
